Assay results: publication PMC9296572, “An Unusual Oxidative Rearrangement Catalyzed by a Divergent Member of the 2‐Oxoglutarate‐Dependent Dioxygenase Superfamily during Biosynthesis of Dehydrofosmidomycin” (Angewandte Chemie (International Ed. in English), 2022)

Tested on: C[N+](C)(C)CCP(=O)([O-])O
Test: O2 consumption, Clark-type electrode, initial rates in first minute
Assay type: biochemical, Streptomyces lavendulae
Conditions: apparent; co-substrates 2-oxoglutarate and O2, Fe(II); two-turnover enzyme, value assumed to pertain to the desaturation to TMAVP

## DfmD (Streptomyces lavendulae)
  Km: 160 µM
  kcat: 0.04 s⁻¹
